Measured values published in patent US20190127480A1 (Regeneron, published 2019).

Legend:
[1] = target: T1, human CD3 expressed on cells (Jurkat cells, a CD3+ human T-cell line; human PBMC T cells) (human, UniProt P07766 23-207; P04234 22-171); assay: cell-based or functional assay
[2] = target: T1, human CD3 expressed on cells (Jurkat …); assay: FACS on Jurkat cells
Method: FACS data was acquired using the following protocol: Cells at 2×10⁵ per well were incubated with serially diluted antibodies for 30 min on ice. Post incubation, cells were washed and secondary antibody was added and incubated for an additional 30 minutes. After incubation, cells were washed, re-suspended in cold PBS containing 1% BSA and analyzed by flow cytometry with viable Jurkat cells gated by side and forward scatters. The EC₅₀s for cell binding titration were determined using Prism software with values calculated using a 4-parameter non-linear regression analysis.

[3] = target: T2, Soluble heterodimeric CD3 protein (hCD3-epsilon/hCD3-delta) with either a human Fc tag (hFcΔAdp/hFc) or a … (human, UniProt P07766 23-126; P04234 22-105); assay: SPR Biacore 25C antigen-capture
T2 construct: also called hCD3ε/δ; not shown: Fc tag: human (hFcΔAdp/hFc)
How it was run: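 Rate constants fitted to a 1:1 model, giving KD as kd/ka and dissociative half-life as ln2/(60·kd) minutes. Antibodies flowed over CD3ε/δ heterodimer captured on anti-human or anti-mouse Fc surfaces, run on a Biacore T200 at 25 °C.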

[4] = target: human CD3 expressed on cells (Jurkat cells; human T-cells of PBMC) (human, UniProt P09693 23-182; P20963 22-164); assay: cell-based or functional assay
human CD3 expressed on cells (Jurkat cells; human T-cells of PBMC), sequence (chain, as listed by the source, chain 1 of 4): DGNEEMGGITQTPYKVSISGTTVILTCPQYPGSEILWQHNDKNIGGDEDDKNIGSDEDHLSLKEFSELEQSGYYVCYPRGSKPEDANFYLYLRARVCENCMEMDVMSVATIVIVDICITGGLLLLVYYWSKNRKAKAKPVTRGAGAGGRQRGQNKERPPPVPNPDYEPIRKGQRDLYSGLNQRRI
human CD3 expressed on cells (Jurkat cells; human T-cells of PBMC), sequence (chain, as listed by the source, chain 2 of 4): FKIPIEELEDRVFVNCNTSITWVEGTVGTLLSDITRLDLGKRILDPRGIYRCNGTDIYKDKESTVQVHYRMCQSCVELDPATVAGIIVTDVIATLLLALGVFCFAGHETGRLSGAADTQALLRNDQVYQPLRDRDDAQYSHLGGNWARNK
human CD3 expressed on cells (Jurkat cells; human T-cells of PBMC), sequence (P09693 23-182, chain 3 of 4): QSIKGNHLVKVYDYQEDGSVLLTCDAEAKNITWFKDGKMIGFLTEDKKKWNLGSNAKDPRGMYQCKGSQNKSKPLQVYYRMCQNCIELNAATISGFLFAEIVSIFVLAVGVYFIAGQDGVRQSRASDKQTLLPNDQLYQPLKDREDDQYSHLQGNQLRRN
human CD3 expressed on cells (Jurkat cells; human T-cells of PBMC), sequence (P20963 22-164, chain 4 of 4): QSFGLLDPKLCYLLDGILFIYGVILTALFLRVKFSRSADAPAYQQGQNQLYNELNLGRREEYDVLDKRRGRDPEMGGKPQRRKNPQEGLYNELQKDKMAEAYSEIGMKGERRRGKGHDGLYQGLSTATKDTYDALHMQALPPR

T2 sequence (P07766 23-126 limits assumed, stated change not applied, chain 1 of 2): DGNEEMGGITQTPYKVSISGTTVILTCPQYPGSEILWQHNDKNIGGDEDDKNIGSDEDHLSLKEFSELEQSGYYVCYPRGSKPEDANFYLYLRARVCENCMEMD
T2 sequence (P04234 22-105 limits assumed, stated change not applied, chain 2 of 2): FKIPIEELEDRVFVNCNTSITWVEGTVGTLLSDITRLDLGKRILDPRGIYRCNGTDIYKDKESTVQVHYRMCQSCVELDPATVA
T1 sequence (P07766 23-207 limits assumed, chain 1 of 2): as the sequence (chain, as listed by the source, chain 1 of 4) above
T1 sequence (P04234 22-171 limits assumed, chain 2 of 2): as the sequence (chain, as listed by the source, chain 2 of 4) above

| Binder | EC50 [M] hPBMC Proliferation [1] | EC50 [2] | Kd [3] | T½ [3] | koff [3] | kon [3] | EC50 [M] hPBMC Proliferation [4] |
| --- | --- | --- | --- | --- | --- | --- | --- |
| H2M3548N (antibody, mouse IgG2, V domains shown, H2M: mouse IgG2 Fc, human variable regions; divalent) VH: EVQLVESGGGLVQPGRSLRLSCAASGFKFADYAMHWVRQAPGKGLEWVSEISWNSGSIGYVDSVKGRFTISRDNAKNSLYLQMNSLRAEDTALYYCVKDKSGYGHYYIGMDVWGQGTTVIVSS VL: not shown | 1.89e-12 M | 1.1 nM |  |  |  |  |  |
| H2M2690N (antibody, mouse IgG2, V domains shown, H2M: mouse IgG2 Fc, human variable regions; divalent) VH: EVQLVESGGGLVQPGRSLRLSCAASGFTFDDYTMHWVRQAPGKGLEWVSGISWNSGSIGYADSVKGRFTISRDNAKKSLYLQMNSLRAEDTALYYCAKDNSGYGHYYYGMDVWGQGTTVTVAS VL: EIVMTQSPATLSVSPGERATLSCRASQSVSSNLAWYQQKPGQAPRLLIYGASTRATGIPARFSGSGSGTEFTLTISSLQSEDFAVYYCQHYINWPLTFGGGTKVEIK | 5.37e-12 M | 4.37 nM | 0.0799 nM | 30.3 h | 6.35e-06 s⁻¹ | 75100 M⁻¹ s⁻¹ |  |
| H2M2778N (antibody, mouse IgG2, V domains shown, H2M: mouse IgG2 Fc, human variable regions; divalent) VH: EVQLVESGGGLVQPGRSLRLSCAASGFTFDDYSMHWVRQAPGKGLEWVSGISWNSRSIDYADSVKGRFTISRDNAKNSLYLQMNSLRAEDTALYYCVKDNSGYGRYYYYGMDVWGQGTTVSVSS VL: KIVMTQSPATLSVSPGERATLSCRASQSVSGNLAWYQQKPGQAPRLLIYGASTRATSIPARFSGSGSGTEFTLTISSLQSEDFAVYFCQHYYNWPLTFGGGTKVEIR |  | 3.62 nM | 0.0468 nM | 29.3 h | 6.57e-06 s⁻¹ | 150000 M⁻¹ s⁻¹ |  |
| H1H5799P (antibody, human IgG1, V domains shown) VH: QVQLVQSGAEVKKPGASVKVSCKASGYTFIGYYMHWVRQAPGQGLEWMGWINPKSGGTNYAQKFQGRVTMTGDTSISTAYMELSRLRSDDTAVFYCARMGDGAMFDYWGQGTLVTVSS VL: DIQMTQSPSSLSASVGDRVTITCRASQRISSYLNWYQQKAGKAPKVLIYTASSLQSGVPSRFSGSGSGTDFTLTISSLQPEDFATYYCQQSYSTPLTFGGGTKVEIK |  |  |  |  |  |  | 1.63e-13 M |
| H2M2789N (antibody, mouse IgG2, V domains shown) VH: QVTLKESGPALVKPTQTLTLTCTFSGFSLSTSGMCVSWIRQPPGKALEWLARIDWDDDKYYSTSLKTRLTISKDTSKNQVVLTMTNMDPVDTATYYCARMDIVGARGGWFDPWGQGTLVTVSS VL: DIQMTQSPSSLSASVGDRVTITCRASQGISNYLAWFQQKPGKAPKSLIYAASSLQSGVPSKFSGSGSGTDFTLTISSLQPEDFATYYCQQYNSYPLTFGGGTKVEIK | 2.85e-08 M |  |  |  |  |  |  |
| H1M3549N (antibody, mouse IgG1, V domains shown, H1M: mouse IgG1 Fc, human variable regions; divalent) VH: EVQLVESGGGLVQPGRSLRLSCVASGFPFADYTMHWVRQAPGKGLEWVSDISWNSGSIGYADSVKGRFTISRDNAKNSLYLQMNSLRTEDTALYYCAKDMSGYAHYFYYGMDVWGQGTTVTVSS VL: not shown |  | 2.3 nM | 1.03 nM | 0.667 h | 0.000289 s⁻¹ | 281000 M⁻¹ s⁻¹ |  |
| H1M3613N (antibody, mouse IgG1, V domains shown, H1M: mouse IgG1 Fc, human variable regions; divalent) VH: EVQLVESGGGLVQPGRSLKLSCTASGFTFADYTMHWVRQGPGKGLEWVSDISWNSGSKGYADSVKGRFTISRDNAKNSLYLQMNSLRTEDTALYYCAKDMSGYAHYYYYALDVWGQGTTVTVSS VL: not shown |  | 10.3 nM | 0.435 nM | 2 h | 9.6e-05 s⁻¹ | 220000 M⁻¹ s⁻¹ |  |
| H1M3542N (antibody, mouse IgG1, V domains shown, H1M: mouse IgG1 Fc, human variable regions; divalent) VH: EVQLVESGGGLVQPGRSLRLSCVASGFPFADYTMHWVRQAPGKGLEWVSDISWNSGSKGYADSVKGRFTISRDNAKNSLYLQMNSLRTEDTAFYYCAKDMSGYAHYFYYGMDVWGQGTTVTVSS VL: not shown |  | 2.01 nM | 0.457 nM | 0.967 h | 0.0002 s⁻¹ | 437000 M⁻¹ s⁻¹ |  |
